According to PMC11183095 (2024):

Target: Recombinant His-PGAM1 (human, UniProt P18669 1-254)
Test: BLI

Chain of Recombinant His-PGAM1 (P18669 whole entry): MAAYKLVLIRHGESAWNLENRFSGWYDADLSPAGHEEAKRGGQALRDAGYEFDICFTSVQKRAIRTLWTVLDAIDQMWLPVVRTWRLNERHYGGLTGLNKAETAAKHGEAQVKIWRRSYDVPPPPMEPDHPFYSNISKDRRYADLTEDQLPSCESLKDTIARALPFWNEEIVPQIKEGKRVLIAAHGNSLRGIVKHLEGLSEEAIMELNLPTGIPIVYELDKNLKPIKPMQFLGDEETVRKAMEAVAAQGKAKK

B1: Recombinant GST-PKM2 (enzyme)
chain: not shown
Kd: 2240 nM
